Laboratory results taken from article PMC4538836, “Human DNA ligase III bridges two DNA ends to promote specific intermolecular DNA end joining”.

B1: FITC blunt duplex (dsDNA)
DNA 1: CATGATTACGG
DNA 2: CCGTAATCATG
B2: bridged pair, blunt ends (dsDNA)
DNA 1: AGTGAATTCGAGCTCG
DNA 2: CGAGCTCGAATTCACT
DNA 3: CATGATTACGG
DNA 4: CCGTAATCATG

Assays:
[1] = molecular target: T1, DNA ligase III beta (LigIII) (Homo sapiens, UniProt P49916-4 1-862); experiment: fluorescence anisotropy; stoichiometric titration, 1 LigIII : 2 DNA; 50 mM HEPES-NaOH pH 7.5, 80 mM NaCl, 5 mM MgCl2, 1 mM DTT, 1 mM ATP, 50 ug/ml BSA; anisotropy 25 C (25 nM DNA), TR-FRET room temperature, pull-down 4 C; conditions: protein: recombinant; tags: N-terminal His (pQE32); label: 5'-FITC on strand 1; blunt
T1 sequence: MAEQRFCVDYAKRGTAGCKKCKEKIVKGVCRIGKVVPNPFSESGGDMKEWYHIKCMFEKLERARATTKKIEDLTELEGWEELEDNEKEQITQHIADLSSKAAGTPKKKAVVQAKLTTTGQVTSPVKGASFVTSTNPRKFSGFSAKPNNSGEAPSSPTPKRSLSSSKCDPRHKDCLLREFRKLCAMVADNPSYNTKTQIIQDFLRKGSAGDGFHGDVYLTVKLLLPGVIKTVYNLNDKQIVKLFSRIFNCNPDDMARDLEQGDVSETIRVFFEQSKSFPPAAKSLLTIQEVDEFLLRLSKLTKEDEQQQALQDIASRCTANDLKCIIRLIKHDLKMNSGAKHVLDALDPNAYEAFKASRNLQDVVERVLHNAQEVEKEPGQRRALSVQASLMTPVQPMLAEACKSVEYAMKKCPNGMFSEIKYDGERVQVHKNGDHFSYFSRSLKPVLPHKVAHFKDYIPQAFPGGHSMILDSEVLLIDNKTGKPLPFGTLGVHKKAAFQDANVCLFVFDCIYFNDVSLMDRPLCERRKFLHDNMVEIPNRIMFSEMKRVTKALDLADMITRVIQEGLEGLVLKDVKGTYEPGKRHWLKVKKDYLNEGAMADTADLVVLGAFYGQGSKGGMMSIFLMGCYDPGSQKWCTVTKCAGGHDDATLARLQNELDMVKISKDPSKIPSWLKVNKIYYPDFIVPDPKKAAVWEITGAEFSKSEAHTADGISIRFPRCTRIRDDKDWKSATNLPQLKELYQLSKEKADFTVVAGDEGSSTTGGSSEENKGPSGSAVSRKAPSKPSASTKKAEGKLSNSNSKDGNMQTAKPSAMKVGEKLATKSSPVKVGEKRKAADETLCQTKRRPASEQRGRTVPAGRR

[2] = molecular target: T1, DNA ligase III beta (LigIII); experiment: TR-FRET; DNA bridging; 5 mM Mg2+, 1 mM ATP; 50 mM HEPES-NaOH pH 7.5, 80 mM NaCl, 5 mM MgCl2, 1 mM DTT, 1 mM ATP, 50 ug/ml BSA; anisotropy 25 C (25 nM DNA), TR-FRET room temperature, pull-down 4 C; conditions: protein: recombinant; tags: N-terminal His (pQE32); label: 5'-biotin on S1; 5'-FITC on S3; two blunt duplexes

Binder | binding result [1] | binding result [2]
B1 | binds | –
B2 | – | binds
